# Residue numbers refer to the chain shown, from its start.
# T1: human GIP receptor (human) (UniProt P48546)
# T1 sequence (looked up): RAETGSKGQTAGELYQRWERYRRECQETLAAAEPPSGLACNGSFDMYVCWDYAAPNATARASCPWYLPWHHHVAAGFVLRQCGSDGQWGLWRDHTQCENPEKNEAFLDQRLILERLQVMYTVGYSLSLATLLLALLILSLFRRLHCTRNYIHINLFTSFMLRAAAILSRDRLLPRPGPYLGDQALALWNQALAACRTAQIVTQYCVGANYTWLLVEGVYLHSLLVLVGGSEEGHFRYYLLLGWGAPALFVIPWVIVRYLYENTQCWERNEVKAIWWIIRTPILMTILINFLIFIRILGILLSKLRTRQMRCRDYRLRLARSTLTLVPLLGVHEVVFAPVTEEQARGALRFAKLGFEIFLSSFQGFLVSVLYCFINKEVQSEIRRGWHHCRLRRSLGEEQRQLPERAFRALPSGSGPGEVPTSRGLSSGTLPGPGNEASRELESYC
# B1: Example 1180 (peptide)
# chain: YXQGTXTSDXXIXLDXKAQXEFIEXLIEGGPSSGAPPPSGGGE
# modifications: Non-natural residues; K acylated AEEA-(γGlu)2-C18 diacid; C-terminal amide; synthetic construct; SITE 2: note = 2-Aminoisobutyric Acid; SITE 6: note = alpha-methyl-2-fluoro-L-phenylalanine; SITE 10: note = 3-(4-Pyridyl)-L-alanine; SITE 11: note = alpha-methyl-L-serine; SITE 13: note = alpha-methyl-leucine; SITE 16: note = L-ornithine; SITE 17: note = Lysine is chemically mo
# B2: Example 1184 (peptide)
# chain: B1 chain with X6F, I12Q, E21Q, G29X, A35E
# modifications: non-natural residues; Lys acylated with γGlu-C18 diacid; C-terminal amide; synthetic construct; SITE 2: note = 2-Aminoisobutyric Acid; SITE 10: note = 3-(4-Pyridyl)-L-alanine; SITE 11: note = alpha-methyl-L-serine; SITE 13: note = alpha-methyl-leucine; SITE 16: note = L-ornithine; SITE 17: note = Lysine is chemically modified through conjugation of the epsilon-amino group
# B3: Example 1188 (peptide)
# chain: B1 chain with X6F, I12Q, E21Q, E24Q, A35E
# modifications: not fully specified; non-natural residues, lipidated Lys, C-terminal amide; synthetic construct; SITE 2: note = 2-Aminoisobutyric Acid; SITE 10: note = 3-(4-Pyridyl)-L-alanine; SITE 11: note = alpha-methyl-L-serine; SITE 13: note = alpha-methyl-leucine; SITE 16: note = L-ornithine; SITE 17: note = Lysine is chemically modified through conjugation of the epsilon-amino group
# B4: Example 1187 (peptide)
# chain: B1 chain with X6F, I12Q, E21Q, G29X
# modifications: not fully specified; acylated lysine γGlu-C18 diacid; non-natural residues; C-terminal amide; synthetic construct; SITE 2: note = 2-Aminoisobutyric Acid; SITE 10: note = 3-(4-Pyridyl)-L-alanine; SITE 11: note = alpha-methyl-L-serine; SITE 13: note = alpha-methyl-leucine; SITE 16: note = L-ornithine; SITE 17: note = Lysine is chemically modified through conjugation of the epsilon-amino group
# B5: Example 1185 (peptide)
# chain: B1 chain with X6F, I12Q, E21Q, E28A, G29X
# modifications: not fully specified; non-natural residues; Lys acylated with γGlu-C18 diacid; C-terminal amide; synthetic construct; SITE 2: note = 2-Aminoisobutyric Acid; SITE 10: note = 3-(4-Pyridyl)-L-alanine; SITE 11: note = alpha-methyl-L-serine; SITE 13: note = alpha-methyl-leucine; SITE 16: note = L-ornithine; SITE 17: note = Lysine is chemically modified through conjugation of the epsilon-amino group
# B6: Example 1186 (peptide)
# chain: B1 chain with X6F, I12Q, E21Q, E24Q, G29X
# modifications: not fully specified; Aib, 4Pal, Me4Pal, alpha-methyl residues, Orn, lipidated Lys, amide; synthetic construct; SITE 2: note = 2-Aminoisobutyric Acid; SITE 10: note = 3-(4-Pyridyl)-L-alanine; SITE 11: note = alpha-methyl-L-serine; SITE 13: note = alpha-methyl-leucine; SITE 16: note = L-ornithine; SITE 17: note = Lysine is chemically modified through conjugation of the epsilon-amino group
# B7: Example 1181 (peptide)
# chain: B1 chain with A35E
# modifications: non-natural residues, AEEA-(γGlu)2-C18 diacid acyl on K, C-terminal amide; synthetic construct; SITE 2: note = 2-Aminoisobutyric Acid; SITE 6: note = alpha-methyl-2-fluoro-L-phenylalanine; SITE 10: note = 3-(4-Pyridyl)-L-alanine; SITE 11: note = alpha-methyl-L-serine; SITE 13: note = alpha-methyl-leucine; SITE 16: note = L-ornithine; SITE 17: note = Lysine is chemically mo
# B8: Example 1189 (peptide)
# chain: YXQGTXTSDXXIXLDXKAQXEFIEXLIEGGPPSXXPPPXGS
# modifications: non-natural residues, C-terminal amide, acylated Lys with fatty diacid; synthetic construct; SITE 2: note = 2-Aminoisobutyric Acid; SITE 6: note = alpha-methyl-2-fluoro-L-phenylalanine; SITE 10: note = 3-(4-Pyridyl)-L-alanine; SITE 11: note = alpha-methyl-L-serine; SITE 13: note = alpha-methyl-leucine; SITE 16: note = L-ornithine; SITE 17: note = Lysine is chemically mo
# B9: Example 1193 (peptide)
# chain: B8 chain with X35E, S41E
# modifications: non-natural residues (Aib, αMeF(2F), 4Pal, Orn, Me4Pal); lipidated Lys; C-amide; synthetic construct; SITE 2: note = 2-Aminoisobutyric Acid; SITE 6: note = alpha-methyl-2-fluoro-L-phenylalanine; SITE 10: note = 3-(4-Pyridyl)-L-alanine; SITE 11: note = alpha-methyl-L-serine; SITE 13: note = alpha-methyl-leucine; SITE 16: note = L-ornithine; SITE 17: note = Lysine is chemically mo
# B10: Example 1191 (peptide)
# chain: B8 chain with X34G, X35E, X39E, S41E
# modifications: non-natural residues; lipidated Lys AEEA-γGlu-C18 diacid; C-term amide; synthetic construct; SITE 2: note = 2-Aminoisobutyric Acid; SITE 6: note = alpha-methyl-2-fluoro-L-phenylalanine; SITE 10: note = 3-(4-Pyridyl)-L-alanine; SITE 11: note = alpha-methyl-L-serine; SITE 13: note = alpha-methyl-leucine; SITE 16: note = L-ornithine; SITE 17: note = Lysine is chemically mo
# B11: Example 1192 (peptide)
# chain: B8 chain with P32S, X35A, X39E, S41E
# modifications: non-natural residues; AEEA-γGlu-C18 diacid on Lys; C-terminal amide; synthetic construct; SITE 2: note = 2-Aminoisobutyric Acid; SITE 6: note = alpha-methyl-2-fluoro-L-phenylalanine; SITE 10: note = 3-(4-Pyridyl)-L-alanine; SITE 11: note = alpha-methyl-L-serine; SITE 13: note = alpha-methyl-leucine; SITE 16: note = L-ornithine; SITE 17: note = Lysine is chemically mo
# B12: Example 1190 (peptide)
# chain: B8 chain with X35E, X39E, S41E
# modifications: non-natural residues, acylated Lys, C-terminal amide; synthetic construct; SITE 2: note = 2-Aminoisobutyric Acid; SITE 6: note = alpha-methyl-2-fluoro-L-phenylalanine; SITE 10: note = 3-(4-Pyridyl)-L-alanine; SITE 11: note = alpha-methyl-L-serine; SITE 13: note = alpha-methyl-leucine; SITE 16: note = L-ornithine; SITE 17: note = Lysine is chemically mo
# B13: Example 1194 (peptide)
# chain: B8 chain with X39E, S41E
# modifications: non-natural residues; lipidated Lys; C-terminal amide; synthetic construct; SITE 2: note = 2-Aminoisobutyric Acid; SITE 6: note = alpha-methyl-2-fluoro-L-phenylalanine; SITE 10: note = 3-(4-Pyridyl)-L-alanine; SITE 11: note = alpha-methyl-L-serine; SITE 13: note = alpha-methyl-leucine; SITE 16: note = L-ornithine; SITE 17: note = Lysine is chemically mo
# B14: Example 1195 (peptide)
# chain: B8 chain with S41E
# modifications: non-natural residues; acylated Lys; C-terminal amide; synthetic construct; SITE 2: note = 2-Aminoisobutyric Acid; SITE 6: note = alpha-methyl-2-fluoro-L-phenylalanine; SITE 10: note = 3-(4-Pyridyl)-L-alanine; SITE 11: note = alpha-methyl-L-serine; SITE 13: note = alpha-methyl-leucine; SITE 16: note = L-ornithine; SITE 17: note = Lysine is chemically mo
# B15: Example 1182 (peptide)
# chain: YXQGTFTSDXXQXLDXKAQXQFIEXLIAXGPSSGEPPPSGGGE
# modifications: non-natural residues; lysine acylated with C18 diacid; C-terminal amide; synthetic construct; SITE 2: note = 2-Aminoisobutyric Acid; SITE 10: note = 3-(4-Pyridyl)-L-alanine; SITE 11: note = alpha-methyl-L-serine; SITE 13: note = alpha-methyl-leucine; SITE 16: note = L-ornithine; SITE 17: note = Lysine is chemically modified through conjugation of the epsilon-amino group
# B16: Example 1183 (peptide)
# chain: B15 chain with E24Q, A28E
# modifications: non-natural residues; lipidated Lys; C-terminal amide; synthetic construct; SITE 2: note = 2-Aminoisobutyric Acid; SITE 10: note = 3-(4-Pyridyl)-L-alanine; SITE 11: note = alpha-methyl-L-serine; SITE 13: note = alpha-methyl-leucine; SITE 16: note = L-ornithine; SITE 17: note = Lysine is chemically modified through conjugation of the epsilon-amino group
# B17: Example 1179 (peptide)
# chain: YXQGTXTSDXXIXLDXKAQXEFIEXLIEGGPSSGEPPPSGSE
# modifications: non-natural residues, C-terminal amide, acylated Lys with fatty diacid; synthetic construct; SITE 2: note = 2-Aminoisobutyric Acid; SITE 6: note = alpha-methyl-2-fluoro-L-phenylalanine; SITE 10: note = 3-(4-Pyridyl)-L-alanine; SITE 11: note = alpha-methyl-L-serine; SITE 13: note = alpha-methyl-leucine; SITE 16: note = L-ornithine; SITE 17: note = Lysine is chemically mo
# Target: T1, human GIP receptor (human)
# Test: cell-based or functional assay
Binder,Relative cAMP EC50,cAMP Rel EC50 (in the presence of 1% HSA)
B1,0.00602 nM,0.341 nM
B2,0.071 nM,8.39 nM
B3,0.0914 nM,7.02 nM
B4,0.0648 nM,7.11 nM
B5,0.0266 nM,2.31 nM
B6,0.0404 nM,3.17 nM
B7,0.0115 nM,0.666 nM
B8,0.00597 nM,0.584 nM
B9,0.00897 nM,0.803 nM
B10,0.00992 nM,0.931 nM
B11,0.00924 nM,1.06 nM
B12,0.0109 nM,0.954 nM
B13,0.00725 nM,0.759 nM
B14,0.00708 nM,0.637 nM
B15,0.0316 nM,2.73 nM
B16,0.0484 nM,3.16 nM
B17,0.0102 nM,0.58 nM

# Target: human glucagon receptor (human) (UniProt P47871)
# Test: cell-based or functional assay
# Chain of human glucagon receptor (human) (P47871 26-477): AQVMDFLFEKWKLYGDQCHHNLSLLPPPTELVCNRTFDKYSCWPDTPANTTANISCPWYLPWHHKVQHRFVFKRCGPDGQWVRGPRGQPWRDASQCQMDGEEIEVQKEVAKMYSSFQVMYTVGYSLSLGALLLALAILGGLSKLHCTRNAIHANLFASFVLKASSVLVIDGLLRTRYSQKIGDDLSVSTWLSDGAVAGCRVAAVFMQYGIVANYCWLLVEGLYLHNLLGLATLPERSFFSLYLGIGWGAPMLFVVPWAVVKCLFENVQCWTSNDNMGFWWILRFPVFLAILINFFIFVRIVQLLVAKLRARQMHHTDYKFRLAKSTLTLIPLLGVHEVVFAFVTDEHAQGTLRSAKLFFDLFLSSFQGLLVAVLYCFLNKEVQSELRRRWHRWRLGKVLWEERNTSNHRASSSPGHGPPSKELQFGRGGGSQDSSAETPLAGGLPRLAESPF
Binder,Relative cAMP EC50,cAMP Rel EC50 (in the presence of 1% HSA)
B1,3.16 nM,205 nM
B2,1.5 nM,295 nM
B3,1.16 nM,130 nM
B4,1.81 nM,370 nM
B5,1.64 nM,206 nM
B6,1.46 nM,164 nM
B7,3.34 nM,203 nM
B8,1.59 nM,248 nM
B9,1.56 nM,202 nM
B10,3.06 nM,243 nM
B11,1.54 nM,218 nM
B12,1.68 nM,192 nM
B13,2.02 nM,215 nM
B14,1.74 nM,242 nM
B15,1.24 nM,172 nM
B16,1.38 nM,127 nM
B17,2.87 nM,197 nM

# Target: hGLP-1R (Homo sapiens, UniProt P43220)
# Test: cell-based or functional assay
# Chain of hGLP-1R (P43220 24-463): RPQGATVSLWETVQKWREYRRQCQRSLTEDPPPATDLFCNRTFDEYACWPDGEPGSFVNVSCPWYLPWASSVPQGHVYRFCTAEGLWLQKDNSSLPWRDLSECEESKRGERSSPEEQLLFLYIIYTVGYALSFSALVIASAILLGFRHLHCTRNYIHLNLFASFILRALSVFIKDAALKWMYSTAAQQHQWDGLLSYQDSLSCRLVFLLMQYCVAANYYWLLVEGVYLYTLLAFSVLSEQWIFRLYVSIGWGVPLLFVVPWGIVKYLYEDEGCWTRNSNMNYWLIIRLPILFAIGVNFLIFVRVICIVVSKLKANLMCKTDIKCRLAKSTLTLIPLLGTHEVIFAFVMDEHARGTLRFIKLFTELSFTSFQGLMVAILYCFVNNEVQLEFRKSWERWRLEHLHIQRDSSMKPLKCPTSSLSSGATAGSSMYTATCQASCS
Binder,Relative cAMP EC50,cAMP Rel EC50 (in the presence of 1% HSA)
B1,0.445 nM,35.6 nM
B2,1.18 nM,179 nM
B3,1.01 nM,77.1 nM
B4,1.06 nM,154 nM
B5,0.762 nM,66.1 nM
B6,0.594 nM,52.1 nM
B7,0.664 nM,48.2 nM
B8,0.292 nM,45.4 nM
B9,0.544 nM,66.2 nM
B10,0.945 nM,82.3 nM
B11,0.499 nM,59.5 nM
B12,0.765 nM,77.4 nM
B13,0.51 nM,57.4 nM
B14,0.367 nM,44.2 nM
B15,0.797 nM,80.4 nM
B16,0.769 nM,53.6 nM
B17,0.652 nM,37.9 nM

# — patent US20240270821A1, “GIP/GLP1/GCG TRI-RECEPTOR AGONISTS AND USES THEREOF” (priority 2023, published 2024)
